Test results from US6759384.
No end group written: not given here.

T1: human factor Xa (Enzyme Research Laboratories, Inc.) (human), P00742
T1 chain 1: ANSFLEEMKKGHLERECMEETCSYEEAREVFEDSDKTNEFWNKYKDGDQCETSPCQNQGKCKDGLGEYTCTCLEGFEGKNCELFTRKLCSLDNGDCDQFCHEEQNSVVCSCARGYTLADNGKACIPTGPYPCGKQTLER
T1 chain 2: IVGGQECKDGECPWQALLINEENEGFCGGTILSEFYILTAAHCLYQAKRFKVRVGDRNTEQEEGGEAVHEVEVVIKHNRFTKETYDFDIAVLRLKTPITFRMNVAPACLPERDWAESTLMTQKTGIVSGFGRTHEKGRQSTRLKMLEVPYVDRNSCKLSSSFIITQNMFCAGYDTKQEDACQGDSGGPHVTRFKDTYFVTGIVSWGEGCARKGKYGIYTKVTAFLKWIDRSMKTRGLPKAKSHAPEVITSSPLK

B1: G-Y-I-R-L-NH2 (peptide)
peptide: GYIRL-NH2
B2: E-Y-I-R-K-NH2 (peptide)
peptide: EYIRK-NH2
B3: G-Y-I-R-H-NH2 (peptide)
peptide: GYIRH-NH2
B4: Ac-G-Y-I-R-L-NH2 (peptide)
peptide: Ac-GYIRL-NH2
B5: G-Y-I-R-K-NH2 (peptide)
peptide: GYIRK-NH2
B6: Ac-G-Y-I-R-G-NH2 (peptide)
peptide: Ac-GYIRG-NH2
B7: G-Y-I-R-G-NH2 (peptide)
peptide: GYIRG-NH2
B8: W-I-R-E-K-NH2 (peptide)
peptide: WIREK-NH2
B9: G-Y-I-R-T-NH2 (peptide)
peptide: GYIRT-NH2
B10: G-Y-I-R-G (peptide)
peptide: GYIRG
modifications: not checked
B11: G-Y-I-R-I-NH2 (peptide)
peptide: GYIRI-NH2

Biological target: T1, human factor Xa (Enzyme Research …)
Assay: chromogenic FXa inhibition

| Ki [µM] | Binder |
| --- | --- |
| < 100 | B1 |
| < 100 | B2 |
| < 100 | B3 |
| < 100 | B4 |
| < 100 | B5 |
| < 100 | B6 |
| < 100 | B7 |
| < 100 | B8 |
| < 100 | B9 |
| < 100 | B10 |
| < 100 | B11 |
